{"source": "patent US9724426B2", "about": "“Agents, uses and methods” (AFFINICON APS, priority 2009, dated 2017)", "molecules": {"B1": {"name": "cgamma(6)/K8: chimeric heavy chain cgamma(6) paired with humanized light chain K8 (antibody)", "VH": "DVQLQESGPGLVKPSQSLSLTCTVTGYSITSDYAWNWIRQFPGNKLEWMGYITYSGITNYNPSLKSQISITRDTSKNQFFLQLNSVTTEDTATYYCVSGTYYFDYWGQGTTLTVSS", "light": "DIVMTQSPSSLSASVGDRVTITCRASQSVSSDVAWFQQKPGKSPKPLIYYASSLQSGVPSRFSGSGSGTDFTLTISSLQAEDFAVYFCGQDYTSPRTFGGGTKLEIKRTVAAPSVFIFPPSDEQLKSGTASVVCLLNNFYPREAKVQWKVDNALQSGNSQESVTEQDSKDSTYSLSSTLTLSKADYEKHKVYACEVTHQGLSSPVTKSFNRGEC"}, "B2": {"name": "Fab fragment: Fab of KN2/NRY: heavy chain KN2 with P220 mutated to stop, SEQ ID NO: 82, with light chain NRY (antibody)", "heavy": "QVQLQESGPGLVKPSETLSLTCTVSGYSITSDYAWNWIRQFPGNKLEWMGYITYSGSTYYNPSLKSRVTISVDTSKNQFSLKLSSVTAADTATYYCVSGTYYFDYWGQGTTLTVSSASTKGPSVFPLAPCSRSTSESTAALGCLVKDYFPEPVTVSWNSGALTSGVHTFPAVLQSSGLYSLSSVVTVPSSSLGTKTYTCNVDHKPSNTKVDKRVESKYG", "light": "B1 light with S53N, L54R, Q55Y"}, "B3": {"name": "scFv: scFv (VH-15 residue linker-VL), SEQ ID NO: 77, expressed in E. coli and refolded (protein)", "scFv": "MDQVQLQESGPGLVKPSETLSLTCTVSGYSITSDYAWNWIRQFPGNKLEWMGYITYSGSTYYNPSLKSRVTISVDTSKNQFSLKLSSVTAADTATYYCVSGTYYFDYWGQGTTLTVSSGGGGSGGGGSGGGGSDIVMTQSPSSLSASVGDRVTITCRASQSVSSDVAWFQQKPGKSPKPLIYYASNRYSGVPSRFSGSGSGTDFTLTISSLQAEDFAVYFCGQDYTSPRTFGGGTKLEIKREQKLISEEDL", "modifications": "scFv sequence"}}, "key": {"[1]": {"test_system": "collagen-induced arthritis", "description": "The effect of dexamethasone on arthritis development in the rat CIA model was tested at three dosages (0.01, 0.1 and 1 mg/kg). Dexamethasone was administered intravenously on day 10 (day of disease onset), 13, 16 and 19. Dexamethasone conjugate produced as described in Example 5 was tested at 0.01 mg/kg using the same treatment regimen as for dexamethasone. Treatment with vehicle (PBS/2.5% EtOH) served as negative control. Rats were sacrificed 21 days after immunization.\nCollagen arthritis was induced in 9 weeks old female Lewis rats using a two-step immunization protocol. […]\nRats were evaluated 6 times per week (once during weekends) for arthritis severity using a macroscopic scoring system of 0-4 for each paw as detailed below: • 0=no signs of arthritis • 0.5=unloading of the paw and/or light redness of ankle joint • 1=redness and mild swelling of the ankle joint • 2=redness and swelling of paw • 3=severe redness and swelling of entire paw including digits • 4=maximally swollen paw, often involvement of multiple joints and extending towards knee joint.\nThe total clinical score of an individual rat is defined as the sum of the clinical scores of all four paws for each day. At the end of the study, the cumulative arthritis score was calculated for each rat. […]\nThe swelling of the hind paws was measured during weekdays with a laser scan micrometer (Mitutoyo, LSM-503S/6200). […]"}, "[2]": {"test_system": "LPS mediated TNFα stimulation", "experiment": "Rat in vivo LPS model", "parameters": "species or system Lewis rats", "conditions": "i.v., challenged with LPS; 2 hours post LPS"}, "CD163 [3]": {"target": "T1, CD163 (Homo sapiens, UniProt Q86VB7)", "T1 sequence (Q86VB7 42-1156)": "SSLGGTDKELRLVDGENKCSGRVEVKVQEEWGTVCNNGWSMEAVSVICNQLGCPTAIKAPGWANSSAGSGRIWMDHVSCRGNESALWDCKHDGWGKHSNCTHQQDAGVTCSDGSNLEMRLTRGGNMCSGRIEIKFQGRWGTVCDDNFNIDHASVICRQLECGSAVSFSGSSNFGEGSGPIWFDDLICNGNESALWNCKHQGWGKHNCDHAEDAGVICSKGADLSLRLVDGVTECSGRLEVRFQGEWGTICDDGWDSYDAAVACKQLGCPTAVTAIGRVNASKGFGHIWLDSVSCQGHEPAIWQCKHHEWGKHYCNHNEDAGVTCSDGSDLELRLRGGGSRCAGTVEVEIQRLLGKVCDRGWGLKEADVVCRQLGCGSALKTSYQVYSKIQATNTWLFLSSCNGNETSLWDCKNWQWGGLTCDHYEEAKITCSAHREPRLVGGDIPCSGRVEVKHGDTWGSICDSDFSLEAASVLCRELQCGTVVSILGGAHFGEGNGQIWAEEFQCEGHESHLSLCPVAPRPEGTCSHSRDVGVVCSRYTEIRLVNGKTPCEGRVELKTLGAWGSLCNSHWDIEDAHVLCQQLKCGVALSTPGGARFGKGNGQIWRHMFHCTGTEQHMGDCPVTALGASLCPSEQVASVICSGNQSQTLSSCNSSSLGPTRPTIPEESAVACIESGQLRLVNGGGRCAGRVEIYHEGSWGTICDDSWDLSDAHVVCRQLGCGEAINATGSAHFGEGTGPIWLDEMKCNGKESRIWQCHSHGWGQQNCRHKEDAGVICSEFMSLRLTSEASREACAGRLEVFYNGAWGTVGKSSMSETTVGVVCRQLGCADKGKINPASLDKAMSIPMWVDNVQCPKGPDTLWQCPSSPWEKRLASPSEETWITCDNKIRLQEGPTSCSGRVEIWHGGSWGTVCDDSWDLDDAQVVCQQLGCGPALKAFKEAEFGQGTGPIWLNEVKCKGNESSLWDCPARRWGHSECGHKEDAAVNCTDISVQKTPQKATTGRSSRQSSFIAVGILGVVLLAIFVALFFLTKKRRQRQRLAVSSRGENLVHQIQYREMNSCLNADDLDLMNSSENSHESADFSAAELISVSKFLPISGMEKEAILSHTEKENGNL", "experiment": "ELISA antibody reactivity comparison", "format": "binding", "procedure": "A nunc maxisorp plate was coated with the following (50 μl/well) over night at 4° C.: 4 μg/ml goat anti-human kappa chain antibody (AbD Serotec, Oxford, UK) and ˜4 μg/ml human CD163 (purified as described in 8). Buffer was carbonate buffer, pH 9.0. Each measurement was made in duplicate.\n4) After blocking, the primary antibody was added (100 μl per well).\nFor CD163 ELISA • 100 μl/well of goat anti human IgG (H&L) HRP 1:6000 in PBS containing 1% BSA. • For Mac2-158 goat anti-mouse HRP 1:2000 in PBS containing 1% BSA is added to the wells 7) Step 1 was repeated 8) The ELISA was developed by adding 75 μl of TMB substrate to each well. Incubation was performed for 3 min. 9) The reaction was stopped by adding 30 μl 2 NH2SO4 to the wells. 10) The plate was read in an ELISA reader at 450 nm.\nBackground was measured on wells with no coating and wells with no primary antibody."}, "CD163 [4]": {"target": "T1, CD163", "experiment": "Fab fragment activity measured by ELISA", "format": "binding", "procedure": "A nunc maxisorp plate was coated with ˜1 μg/ml human CD163 (purified as described by Kristiansen, M. et al. ((2001). Identification of the haemoglobin scavenger receptor. Nature 11:409(6817): 198-201)) was added at 50 μl/well and incubated over night at 4° C. Buffer for coating was carbonate, pH 9.0. Each measurement was made in duplicates.\nThe primary antibody samples used in ELISA was undiluted supernatant or 30 times concentrated supernatant from transfected cells or antibody standard 100 ng/ml KN2/NRY antibody diluted in PBS containing 1% BSA. The supernatant was concentrated on VIVAspin centrifugal concentrator (10.000 MWCO) (Sigma-Aldrich, Brøondby, Denmark).\nThe ELISA steps were as follows: ELISA plates were washed 3 times in PBS and blocked with PBS containing 3% BSA for 1 h. After blocking the primary antibody samples were added to the wells (100 μl/well). 2 fold dilution series were made on all samples and standards (dilutions in PBS containing 1% BSA). The samples were incubated on the plates for 1 h. Subsequently, the plates were washed 3 times in PBS and secondary antibody goat anti human kappa chain HRP (AbD Serotec, Oxford, UK) 1:4000 in PBS containing 1% BSA (100 μl/well) was added to the wells. […] The plates were read in an ELISA reader at 450 nm.\nBackground was measured on both wells with no coating and wells with no primary antibody."}, "CD163 [5]": {"target": "T1, CD163", "experiment": "scFv ELISA", "format": "binding", "conditions": "two-fold dilution series", "procedure": "A nunc Maxisorp ELISA plate (NUNC, Roskilde, Denmark) was coated with 50 μl/well of 2 μg/ml of CD163 (purified as described in (2)) over night at 4° C. The coated plate was washed 3 times in PBS and blocked for 1 hour with 3% BSA in PBS. Fractions from scFv purification were tested by adding 100 μl/well of a 1:10 dilution of each sample in 1% BSA, PBS. The refolded protein sample was added directly to the wells (100 μl/well) and two-fold dilution series was made with dilution in 1% BSA in PBS. After 1 hour incubation at 4° C. the plate was washed 3 times in PBS again. Secondary detection was made with a 1 hour incubation of a HRP conjugated anti-His antibody (Sigma-Aldrich, Brøondby, Denmark) (1:4000 diluted in 1% BSA, PBS). After washing 3 times in PBS the ELISA was developed with […] TMB substrate (Invitrogen, Taastrup, Denmark). The reaction was stopped with 40 μl/well of 1 M H2SO4 and the plate was read in an ELISA reader at 450 nm."}}, "note": "Where a chain is given by its changes, count along the chain named."}
{"molecule": "C[C@@H]1C[C@H]2[C@@H]3CCC4=CC(=O)C=C[C@]4(C)[C@@]3(F)[C@@H](O)C[C@]2(C)[C@@]1(O)C(=O)CO", "note": "[dexamethasone]", "values": [{"measurement": "spleen and liver weights compared to the vehicle group", "setting": "[1]; 0.01, 0.1 and 1 mg/kg groups", "value": "No significant differences"}, {"measurement": "thymus weight compared to the vehicle group", "setting": "[1]; 0.1 and 1 mg/kg groups, at sacrifice day 21", "value": "significantly decreased"}]}
{"molecule": "CC1(C)O[C@@H]2C[C@H]3[C@@H]4C[C@H](F)C5=CC(=O)C=C[C@]5(C)[C@@]4(F)[C@@H](O)C[C@]3(C)[C@]2(C(=O)CO)O1", "note": "[fluocinolone, Fluocinolone acetonide]", "values": [{"measurement": "TNFα level, lower compared to vehicle", "setting": "[2]", "value": 5, "unit": "times"}]}
{"molecule": "B1", "values": [{"measurement": "amount of antibody in sample to obtain the same reactivity as cgamma(6)/NRY", "setting": "CD163 [3]", "value": "approximately twice as much antibody"}, {"measurement": "reactivity towards CD163 in ELISA", "setting": "CD163 [3]; supernatant from transiently transfected CHO-S cells", "value": "almost identical"}]}
{"molecule": "B2", "values": [{"measurement": "ELISA signal and dilution series", "setting": "CD163 [4]; 30× concentrated supernatant, standard 100 ng/ml KN2/NRY", "value": "comparable to the standard dilution series"}, {"measurement": "ELISA signal", "setting": "CD163 [4]; undiluted, non-concentrated supernatant", "value": "very small signal"}]}
{"molecule": "B3", "values": [{"measurement": "dilution down to which signals were detected", "setting": "CD163 [5]", "value": 128, "unit": "fold"}]}
